11 substances from publication PMC11132685 can be followed below.

Holding throughout (assay): SEC-MALS; purified NACHOs; oligomeric state; conditions not given
Experiment [1] addresses tetrabrachion-stabilised recombinant N2 NA (NACHO) of A/ANKARA/2396/2015 (not stated | influenza A virus (H3N2) A/ANKARA/2396/2015).
Experiment [2] has as its target tetrabrachion-stabilised recombinant N2 NA (NACHO) of A/BRISBANE/273/2016 (not stated | influenza A virus (H3N2) A/BRISBANE/273/2016).
Experiment [3] has as its target tetrabrachion-stabilised recombinant N2 NA (NACHO) of A/CATALONIA/9503S/2017 (not stated | influenza A virus (H3N2) A/CATALONIA/9503S/2017).
Experiment [4] has as its target tetrabrachion-stabilised recombinant N2 NA (NACHO) of A/HATAY/4990/2016 (not stated | influenza A virus (H3N2) A/HATAY/4990/2016).
Experiment [5] has as its target tetrabrachion-stabilised recombinant N2 NA (NACHO) of A/HONGKONG/4801/2014 (not stated | influenza A virus (H3N2) A/HONGKONG/4801/2014).
Experiment [6] deals with tetrabrachion-stabilised recombinant N2 NA (NACHO) of A/PARIS/2379/2014 (not stated | influenza A virus (H3N2) A/PARIS/2379/2014).
In experiment [7] the target is tetrabrachion-stabilised recombinant N2 NA (NACHO) of A/SINGAPORE/INFIMH160019/2016 (not stated | influenza A virus (H3N2) A/SINGAPORE/INFIMH160019/2016).
For experiment [8], the target named is tetrabrachion-stabilised recombinant N2 NA (NACHO) of A/STOCKHOLM/14/2012 (not stated | influenza A virus (H3N2) A/STOCKHOLM/14/2012).
Experiment [9] has as its target tetrabrachion-stabilised recombinant N2 NA (NACHO) of A/SWEDEN/3/2017 (not stated | influenza A virus (H3N2) A/SWEDEN/3/2017).
In experiment [10] the target is tetrabrachion-stabilised recombinant N2 NA (NACHO) of A/TEXAS/50/2012 (not stated | influenza A virus (H3N2) A/TEXAS/50/2012).
The target of experiment [11] is tetrabrachion-stabilised recombinant N2 NA (NACHO) of A/VICTORIA/361/2011 (not stated | influenza A virus (H3N2) A/VICTORIA/361/2011).

One may read the stoichiometry N as a count of units in the complex or per binding partner.

With “tetrabrachion-stabilised recombinant N2 NA (NACHO) of A/ANKARA/2396/2015 (enzyme)”, the stoichiometry N in experiment [1] turned out to be 4. On to “tetrabrachion-stabilised recombinant N2 NA (NACHO) of A/BRISBANE/273/2016 (enzyme)”, for which the stoichiometry N in [2] turned out to be 4. Turning to “tetrabrachion-stabilised recombinant N2 NA (NACHO) of A/CATALONIA/9503S/2017 (enzyme)”, the stoichiometry N in [3] worked out at 4.

“tetrabrachion-stabilised recombinant N2 NA (NACHO) of A/HATAY/4990/2016 (enzyme)”: the stoichiometry N in [4] worked out at 4. Regarding “tetrabrachion-stabilised recombinant N2 NA (NACHO) of A/HONGKONG/4801/2014 (enzyme)”, in experiment [5], the stoichiometry N was 4. In the case of “tetrabrachion-stabilised recombinant N2 NA (NACHO) of A/PARIS/2379/2014 (enzyme)”, in [6], the stoichiometry N turned out to be 4.

As for “tetrabrachion-stabilised recombinant N2 NA (NACHO) of A/SINGAPORE/INFIMH160019/2016 (enzyme)”, the stoichiometry N in experiment [7] was 4. For the substance “tetrabrachion-stabilised recombinant N2 NA (NACHO) of A/STOCKHOLM/14/2012 (enzyme)”, the stoichiometry N in [8] stood at 4. As for “tetrabrachion-stabilised recombinant N2 NA (NACHO) of A/SWEDEN/3/2017 (enzyme)”, the stoichiometry N in experiment [9] was 4. Turning to “tetrabrachion-stabilised recombinant N2 NA (NACHO) of A/TEXAS/50/2012 (enzyme)”, the stoichiometry N in experiment [10] stood at 4.

Regarding “tetrabrachion-stabilised recombinant N2 NA (NACHO) of A/VICTORIA/361/2011 (enzyme)”, the stoichiometry N in experiment [11] worked out at 4.
